Assay results reported in publication PMC9433327.
Read-outs that look alike come from different tables or passages of the source.

How the values were obtained:
[1] = target: LRPL-1 (cDNA lacking the signal peptide) (C. elegans); experiment: SPR; LRPL-1 biotinylated and captured on a Streptavidin chip, Biacore X100; DMA-1 ectodomain as analyte at 78 nM to 10 µM; HBS (10 mM HEPES pH 7.2, 150 mM NaCl) with 0.05% Tween-20 and 0.1% BSA; kinetic fit and steady-state fit (Langmuir 1:1)
[2] = target: LRPL-1 (cDNA lacking the signal peptide) (C. elegans); experiment: as above; remark: listed apart in the source

“DMA-1 ectodomain (amino acids Leu20 to Leu507) (domain or fragment)” gave a Kd [1] of 3.9 µM, a koff [1] of 0.018 s⁻¹ and a kon [1] of 4600 M⁻¹ s⁻¹. The Kd [2] was 6.9 µM.
